The values below come from US20180148484A1 (Pieris, published 2018).

Where only a bound is given, the exact number is not on record here.

Assay [1] has as its target T1, human CD137-Fc fusion protein (Fc-fusion of the full extracellular domain of human CD137, R&D Systems 838-4B) (human, UniProt Q07011 24-186).
T1 construct: extracellular domain; Bought protein; also called huCD137-Fc; KD huCD137; not shown: Fc of human IgG (captured by an anti-human IgG-Fc antibody)
Description: SPR (Biacore T200, 37 C), huCD137-Fc captured via anti-human IgG-Fc antibody, mutein as analyte, 1:1 model. Here is the method: Prior to the protein measurements three regeneration cycles were performed for conditioning purposes. Regeneration of the derivatized chip surface was achieved by applying 3M MgCl₂ for 60 s followed by 10 mM glycine, pH 1.7 for 180 s. Anti-human IgG-Fc antibody was utilized to immobilize huCD137-Fc in a subsequent step and taken from the human antibody capture kit (GE Healthcare, BR-1008-39). It was immobilized on a CM5 sensor chip using standard amine coupling chemistry and the immobilization buffer included in the kit (10 mM sodium acetate pH 5.0), resulting in a ligand density of about 13000 resonance units (RU). The reference channel was treated accordingly.
HuCD137-Fc at a concentration of 0.5 μg/mL was captured on this surface for 180 s at a flow rate of 10 μL/min in HBS-EP+ buffer. No target protein was applied to the reference channel. Subsequently, the lipocalin muteins were applied in an appropriate dilution series in HBS-EP+ buffer at a flow rate of 30 μL/min. Regeneration of the derivatized chip surface was achieved as described above. Data were evaluated with Biacore T200 Evaluation software (V 2.0). Double referencing was used and the 1:1 Binding model was used to fit the raw data.
Background: SPR reads the build-up and loss of mass on a sensor chip optically.

Assay [2] addresses T2, human CD137 expressed on cells (human, UniProt Q07011 24-255).
T2 construct: whole, on cells; also called CHO-huCD137; CHO::hCD137
Description: FACS on CHO cells stably transfected with human CD137. The protocol: (§1) To perform the experiment, CD137-positive and negative Flp-In CHO cells were incubated with lipocalin muteins, and bound mutein was labeled using anti-lipocalin primary antibodies and fluorescently labeled secondary antibodies, which were detected by FACS analysis as described in the following.
(§2) 1×10⁵ cells per well were pre-incubated for 1 h in ice-cold PBS containing 5% fetal calf serum (PBS-FCS). Subsequently, a dilution series of lipocalin muteins and negative controls typically ranging from 10 μM to 1 nM was added to the cells and incubation was continued on ice for 1 h. Cells were washed twice in ice-cold PBS using centrifugation at 300 g and then incubated with a rabbit anti-lipocalin primary antibody (Pieris, (polyclonal rabbit anti-hNGAL and rabbit anti-hTLC; Pieris) for 30 min on ice. Cells were washed twice in ice-cold PBS, re-suspended in PBS-FCS and incubated 30 min on ice with a secondary anti-rabbit antibody labelled with the fluorescent dye Alexa488 (Life Technologies). Cells were subsequently washed and analyzed using a Guava easyCyte HT Flow cytometer. Typically, a gate was set to exclude non-viable cells and 5.000 events were recorded. Numerical results are expressed as the geometric mean of the fluorescence intensity.

In assay [3] the target is T1, human CD137-Fc fusion protein …. Description: SPR, huCD137-Fc captured via anti-human IgG-Fc antibody. The source says: FIG. 1: provides typical measurements of on-rate and off-rate by surface plasmon resonance (SPR) for the interaction of various representative lipocalin muteins (SEQ ID NOs indicated in the graph) with human CD137 (Fc-fusion) as the target. The targets were immobilized via an anti-human IgG-Fc antibody, which was in turn immobilized on a sensor chip using standard amine coupling chemistry. The lipocalin muteins were employed as the soluble analyte which was flowed at different concentrations across the chip surface. […] The dissociation constants resulting from a fit (1:1 binding model) of the depicted data for all SEQ ID NOs are provided in Table 1.
Prior to the protein measurements three regeneration cycles were performed for conditioning purposes. Regeneration of the derivatized chip surface was achieved by applying 3M MgCl₂ for 60 s followed by 10 mM glycine, pH 1.7 for 180 s. Anti-human IgG-Fc antibody was utilized to immobilize huCD137-Fc in a subsequent step and taken from the human antibody capture kit (GE Healthcare, BR-1008-39). […]
HuCD137-Fc at a concentration of 0.5 μg/mL was captured on this surface for 180 s at a flow rate of 10 μL/min in HBS-EP+ buffer. […] Data were evaluated with Biacore T200 Evaluation software (V 2.0). […]

Assay [4] concerns the target T2, human CD137 expressed on cells. Description: FACS on CHO cells stably transfected with human CD137; anti-lipocalin primary and Alexa488 secondary antibody. Here is the method: as §1, §2
The target is the same in assay [5]. Description: cell-based or functional assay.

T2 sequence (Q07011 24-255): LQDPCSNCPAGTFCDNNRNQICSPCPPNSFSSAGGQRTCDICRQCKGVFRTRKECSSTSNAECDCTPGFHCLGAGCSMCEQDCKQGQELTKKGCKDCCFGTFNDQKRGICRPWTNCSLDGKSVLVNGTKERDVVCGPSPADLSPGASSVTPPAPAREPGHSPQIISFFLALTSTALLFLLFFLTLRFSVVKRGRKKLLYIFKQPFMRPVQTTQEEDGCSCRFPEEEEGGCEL

B1: lipocalin mutein of SEQ ID NO: 16 (designed binder, not shown: small tags and cut ends)
chain: QDSTSDLIPAPPLSKVPLQQNFQDNQFHGKWYVVGQAGNIKLREDSKMMATIYELKEDKSYDVTGVSFDDKKCTYAIMTFVPGSQPGEFTLGKIKSFPGHTSSLVRVVSTNYNQHAMVFFKFVFQNREEFYITLYGRTKELTSELKENFIRFSKSLGLPENHIVFPVPIDQCIDG
notes: expressed in E. coli with a C-terminal Strep-tag II; also called hNGAL mutein
A word on the Kd: it is the constant that tells how readily two partners part at equilibrium. Read a low Kd as higher affinity. In assay [1], B1 yielded a Kd of 30 nM.

B2: negative control, wild-type like lipocalin mutein SEQ ID NO: 4 (other)
chain: QDSTSDLIPAPPLSKVPLQQNFQDNQFHGKWYVVGLAGNAILREDKDPQKMYATIYELKEDKSYNVTSVLFRKKKCDYWIRTFVPGSQPGEFTLGNIKSYPGLTSYLVRVVSTNYNQHAMVFFKKVSQNREYFKITLYGRTKELTSELKENFIRFSKSLGLPENHIVFPVPIDQCIDG
notes: captured by anti-hNGAL antibody in the T-cell assays
Take B2: the binding result in assay [2] and in assay [3] was “no binding” each time.

B3: lipocalin mutein of SEQ ID NO: 18 (designed binder, not shown: small tags and cut ends)
chain: QDSTSDLIPAPPLSKVPLQQNFQDNQFHGKWYVVGQAGNIRLREDKDPHKMMATIYELKEDKSYDVTGVTFDDKKCTYAISTFVPGSQPGEFTLGKIKSFPGHTSSLVRVVSTNYNQHAMVFFKFVFQNREEFYITLYGRTKELTSELKENFIRFSKSLGLPENHIVFPVPIDQCIDG
notes: as for B1
The term EC50 denotes the concentration at which the effect is half-maximal. Lower therefore signals greater potency. In assay [4], B3 had a concentration giving a half-maximal response (EC50) of 13.7 nM. This molecule gave a Kd in assay [1] of 77 nM.

B4: lipocalin mutein of SEQ ID NO: 19 (designed binder, not shown: small tags and cut ends)
chain: QDSTSDLIPAPPLSKVPLQQNFQDNQFHGKWYVVGQAGNIKLREDKDPNKMMATIYELKEDKSYDVTGVTFDDKKCTYAISTLVPGSQPGEFTFGKIKSFPGHTSSLVRVVSTNYNQHAMVFFKFVFQNREEFYITLYGRTKELTSELKENFIRFSKSLGLPENHIVFPVPIDQCIDG
notes: as for B1
On to B4, for which, in assay [1], the equilibrium dissociation constant (Kd) came to 98 nM.

B5: lipocalin mutein of SEQ ID NO: 13 (designed binder, not shown: small tags and cut ends)
chain: QDSTSDLIPAPPLSKVPLQQNFQDNQFHGKWYVVGQAGNIRLREDKDPIKMMATIYELKEDKSYDVTMVKFDDKKCMYDIWTFVPGSQPGEFTLGKIKSFPGHTSSLVRVVSTNYNQHAMVFFKFVFQNREEFYITLYGRTKELTSELKENFIRFSKSLGLPENHIVFPVPIDQCIDG
notes: as for B1
Turning to B5, a half-maximal effect in assay [4] (EC50) was put at 4.3 nM. The molecule further gave a Kd in assay [1] of 2 nM. In assay [5], the “IFN-γ production, coated mutein, anti-CD3 and anti-CD28 stimulation” value was ≤ 2.5 fold over negative control; the “IFN-γ production, coated mutein, anti-CD3 stimulation only” value is ~2.5 fold over negative control; the “IL-2 production, coated mutein, anti-CD3 and anti-CD28 stimulation” value was ~6 fold over negative control; the “maximum response at 6.25 µg/mL coating concentration (readout not named, probably IL-2), anti-CD3 stimulation only” value is 15 fold over negative control. For the same molecule, in assay [5], the “proliferation rate (BrdU), coated mutein, anti-CD3 and anti-CD28 stimulation” value is ≤ 14 fold over negative control; the “proliferation rate (BrdU), coated mutein, anti-CD3 stimulation only” value was ≤ 4 fold over negative control.

B6: lipocalin mutein of SEQ ID NO: 14 (designed binder, not shown: small tags and cut ends)
chain: QDSTSDLIPAPPLSKVPLQQNFQDNQFHGKWYVVGQAGNIRLREDKDPNKMMATIYELKEDKSYDVTAVAFDDKKCTYDIWTFVPGSQPGEFTLGKIKSFPGHTSSLVRVVSTNYNQHAMVFFKFVFQNREEFYITLYGRTKELTSELKENFIRFSKSLGLPENHIVFPVPIDQCIDG
notes: as for B1
In assay [4], B6 yielded an EC50 of 4.5 nM. The molecule also came in with a Kd in assay [1] of 9 nM.

B7: lipocalin mutein of SEQ ID NO: 15 (designed binder, not shown: small tags and cut ends)
chain: QDSTSDLIPAPPLSKVPLQQNFQDNQFHGKWYVVGQAGNIKLREDKDPNKMMATIYELKEDKSYDVTAVAFDDKKCTYDIWTFVPGSQPGEFTLGKIKSFPGHTSSLVRVVSTNYNQHAMVFFKFVFQNREEFYITLYGRTKELTSELKENFIRFSKSLGLPENHIVFPVPIDQCIDG
notes: as for B1
Molecule B7 gave an EC50 in assay [4] of 7.8 nM. The molecule also gave an equilibrium dissociation constant (Kd) in assay [1] of 23 nM.

B8: lipocalin mutein of SEQ ID NO: 20 (designed binder, not shown: small tags and cut ends)
chain: QDSTSDLIPAPPLSKVPLQQNFQDNQFHGKWYVVGQAGNIRLREDKDPSKMMATIYELKEDKSYDVTAVTFDDKKCNYAISTFVPGSQPGEFTLGKIKSFPGHTSSLVRVVSTNYNQHAMVFFKFVFQNREEFYITLYGRTKELTSELKENFIRFSKSLGLPENHIVFPVPIDQCIDG
notes: as for B1
On to B8, for which the EC50 in assay [4] amounted to 18 nM. This molecule also registered a Kd in assay [1] of 138 nM.

B9: lipocalin mutein of SEQ ID NO: 17 (designed binder, not shown: small tags and cut ends)
chain: QDSTSDLIPAPPLSKVPLQQNFQDNQFHGKWYVVGQAGNIKLREDKDPVKMMATIYELKEDKSYDVTGVTFDDKKCRYDISTFVPGSQPGEFTFGKIKSFPGHTSSLVRVVSTNYNQHAMVFFKFVFQNREEFYITLYGRTKELTSELKENFIRFSKSLGLPENHIVFPVPIDQCIDG
notes: as for B1
As to B9, the EC50 in assay [4] came out at 17.9 nM. This molecule also returned a Kd in assay [1] of 50 nM.

B10: lipocalin mutein of SEQ ID NO: 12 (designed binder, not shown: small tags and cut ends)
chain: QDSTSDLIPAPPLSKVPLQQNFQDNQFHGKWYVVGQAGNIKLREDKDPNKMMATIYELKEDKSYNVTGVTFDDKKCTYAISTFVPGSQPGEFTLGKIKSFPGHTSSLVRVVSTNYNQHAMVFFKFVFQNREEFYITLYGRTKELTSELKENFIRFSKSLGLPENHIVFPVPIDQCIDG
notes: as for B1
As for B10, binding in assay [1] was put at a Kd of 36 nM.
